Assay results as given in patent publication US20190359693A1 (Janssen / Centocor, published 2019).
Where two headings read alike, the source gives them in different places.

Tests used:
HA of H3N2 A/HK/1/68 [1] = target: T1, HA of H3N2 A/HK/1/68 (influenza A virus, UniProt Q91MA7 17-530); test: BLI (Octet)
[2] = target: HA of H3N2 A/Panama/2007/99 (influenza A virus); test: cell-based or functional assay
[3] = target: HA of H4 A/WF/HK/MPA892/06 (influenza A virus); test: cell-based or functional assay
HA of H7N7 A/PR8 H7N7-NY [4] = target: HA of H7N7 A/PR8 H7N7-NY (influenza A virus); test: cell-based or functional assay
HA of H3N2 A/HK/1/68-MA [5] = target: HA of H3N2 A/HK/1/68-MA (influenza A virus); test: cell-based or functional assay
[6] = target: HA of H10N7 A/Chick/Germany/N/49 (influenza A virus); test: cell-based or functional assay
[7] = target: HA of H3N2 A/Brisbane/10/2007 (influenza A virus); test: cell-based or functional assay
[8] = target: HA of H5N1 A/Vietnam/1194/04 (influenza A virus); test: cell-based or functional assay
[9] = target: HA of B/Harbin/7/94 (Yamagata) (influenza B virus); test: cell-based or functional assay
[10] = target: HA of H5N1 A/Vietnam/1194/04 (influenza A virus); test: cell-based or functional assay; remark: listed apart in the source
HA of B/Lee/40 [11] = target: T2, HA of B/Lee/40 (influenza B virus, UniProt P03460 16-552); test: cell-based or functional assay
[12] = target: HA of B/Harbin/7/94 (Yamagata) (influenza B virus); test: cell-based or functional assay; remark: listed apart in the source
HA of B/Lee/40 [13] = target: T2, HA of B/Lee/40; test: cell-based or functional assay; remark: listed apart in the source
[14] = target: HA of B/Malaysia/2506/04 (Victoria) (influenza B virus); test: cell-based or functional assay
[15] = target: HA of H4 A/WF/HK/MPA892/06 (influenza A virus); test: cell-based or functional assay; remark: listed apart in the source
HA of H7N7 A/PR8 H7N7-NY [16] = target: HA of H7N7 A/PR8 H7N7-NY (influenza A virus); test: cell-based or functional assay; remark: listed apart in the source
HA of H3N2 A/HK/1/68 [17] = target: T1, HA of H3N2 A/HK/1/68; test: cell-based or functional assay
[18] = target: HA of H10N7 A/Chick/Germany/N/49 (influenza A virus); test: cell-based or functional assay; remark: listed apart in the source
[19] = target: hemagglutinin (HA) of influenza virus H3N2 A/Wisconsin/67/05 (influenza A virus); test: cell-based or functional assay
[20] = target: hemagglutinin (HA) of influenza virus H1N1 A/Puerto Rico/8/34-MA (influenza A virus); test: cell-based or functional assay
[21] = target: hemagglutinin (HA) of influenza virus H1N1 A/California/07/09 (influenza A virus); test: cell-based or functional assay
[22] = target: hemagglutinin (HA) of influenza virus H5N1 A/Vietnam/1194/04 (influenza A virus); test: cell-based or functional assay
[23] = target: recombinant HA of H1N1 A/New Caledonia/20/1999 (influenza A virus, UniProt Q289M7 18-565); test: biolayer interferometry (Octet), steady-state fit, geometric mean
[24] = target: HA of H3N2 A/Panama/2007/99 (influenza A virus); test: cell-based or functional assay; remark: listed apart in the source
[25] = target: HA of H4 A/WF/HK/MPA892/06 (influenza A virus); test: cell-based or functional assay; remark: listed apart in the source
HA of H7N7 A/PR8 H7N7-NY [26] = target: HA of H7N7 A/PR8 H7N7-NY (influenza A virus); test: cell-based or functional assay; remark: listed apart in the source
HA of H3N2 A/HK/1/68-MA [27] = target: HA of H3N2 A/HK/1/68-MA (influenza A virus); test: cell-based or functional assay; remark: listed apart in the source
[28] = target: HA of H5N1 A/PR8 H5N1 HK97 (influenza A virus); test: cell-based or functional assay
[29] = target: HA of H3N2 A/Wisconsin/67/2005 (influenza A virus); test: cell-based or functional assay
HA of H7N9 A/Anhui/1/13 = HA of H7N9 A/Anhui/1/13 (influenza A virus); test: cell-based or functional assay
HA of H3N2 A/HK/1/68 [30] = target: T1, HA of H3N2 A/HK/1/68; test: cell-based or functional assay; remark: listed apart in the source
[31] = target: HA of H1N1 A/Puerto Rico/8/34-MA (influenza A virus); test: cell-based or functional assay
[32] = target: HA of H10N7 A/Chick/Germany/N/49 (influenza A virus); test: cell-based or functional assay; remark: listed apart in the source
[33] = target: HA of H2N2 A/WF/HK/MPU3156/05 (influenza A virus); test: cell-based or functional assay
[34] = target: HA of H2N2 A/Guiyang/1/57 (influenza A virus); test: cell-based or functional assay
[35] = target: HA of H7N7 A/Netherlands/219/2003 (influenza A virus, UniProt P36346 19-563); test: AlphaLISA competition vs CR9114
[36] = target: HA of H1N1 A/Brisbane/59/07 (influenza A virus); test: cell-based or functional assay

B1: SD1016 (VHH)
VHH: EVQLVESGGGLVQAGGSLRLSCVASGMFFGIAAMGWYRQAPGKQRELVANITSDFSTNYADSVKDRFTISRDNAENTVYLQMNSLKPEDTAVYYCAADSLGTGWRHYYYWGQGTQVTVSS
notes: llama sdAb
binding result (HA of H3N2 A/HK/1/68 [1]): no binding (tested: HA 20 µg/mL) | VNA titer [2]: > 1000 nM | VNA titer [3]: > 1000 nM | VNA titer (HA of H7N7 A/PR8 H7N7-NY [4]): > 1000 nM | VNA titer (HA of H3N2 A/HK/1/68-MA [5]): > 1000 nM | VNA titer [6]: > 1000 nM

B2: SD1035 (VHH)
VHH: EVQLVESGGGLVQAGGTLRLSCAASGSAVSISRMAWYRQAPGKQRELVADIFSGGGTNYADSVKGRFTISRDNAKNTVDLQMNSLKPEDTAVYYCSARSAVAAIHWDQYDYWGQGTQVTVSS
notes: llama sdAb
binding result (HA of H3N2 A/HK/1/68 [1]): no binding (tested: HA 20 µg/mL) | VNA titer [7]: > 1000 nM | VNA titer [8]: > 1000 nM

B3: SD1083 (VHH)
VHH: EVQLVESGGGLVQPGGSLRLSCAATGFTLENKAIGWFRQTPGSEREGVLCISKSGSWTYYTDSMRGRFTISRDNAENTVYLQMDSLKPEDTAVYYCATTTAGGGLCWDGTTFSRLASSWGQGTQVTVSS
hemagglutination inhibition titer [9]: > 50 µg/mL | hemagglutination inhibition titer [10]: > 50 µg/mL | hemagglutination inhibition titer (HA of B/Lee/40 [11]): > 50 µg/mL | VNA titer [12]: 259 nM | VNA titer (HA of B/Lee/40 [13]): 217 nM | VNA titer [14]: 294 nM

B4: SD1045 (VHH)
VHH: EVQLVESGGGLVQAGGSLRLSCAASGSSFSINVMGWYRQAPGKQREMVATITYGGSTNYVDSVKGRFTISRDNAKNTVYLQMNSLKPEDTAVYYCNSRLAQINYWGQGTQVTVSS
notes: llama sdAb
binding result (HA of H3N2 A/HK/1/68 [1]): no binding (tested: HA 20 µg/mL) | VNA titer [15]: 492 nM | VNA titer (HA of H7N7 A/PR8 H7N7-NY [16]): > 1000 nM | VNA titer (HA of H3N2 A/HK/1/68 [17]): > 1000 nM | VNA titer [18]: 985 nM

B5: MD1210 (bispecific antibody)
chain: EVQLVESGGGLVQAGGSLKLSCAASGRTYAMGWFRQAPGKEREFVAHINALGTRTYYSDSVKGRFTISRDNAKNTEYLEMNNLKPEDTAVYYCTAQGQWRAAPVAVAAEYEFWGQGTQVTVSSAAAGGGGSGGGGSGGGGSGGGGSGGGGSGGGGSGGGGSEVQLVESGGGLVQPGGSLRLSCAVSISIFDIYAMDWYRQAPGKQRDLVATSFRDGSTNYADSVKGRFTISRDNAKNTLYLQMNSLKPEDTAVYLCHVSLYRDPLGVAGGMGVYWGKGALVTVSS
neutralization titer [19]: 118 nM | neutralization titer [20]: 21.9 nM | neutralization titer [21]: 2.5 nM | neutralization titer [22]: 21.4 nM | Kd [23]: 0.7 nM

B6: MD1211 (bispecific antibody)
chain: EVQLVESGGGLVQPGGSLRLSCAVSISIFDIYAMDWYRQAPGKQRDLVATSFRDGSTNYADSVKGRFTISRDNAKNTLYLQMNSLKPEDTAVYLCHVSLYRDPLGVAGGMGVYWGKGALVTVSSAAAGGGGSGGGGSGGGGSGGGGSGGGGSGGGGSGGGGSEVQLVESGGGLVQAGGSLKLSCAASGRTYAMGWFRQAPGKEREFVAHINALGTRTYYSDSVKGRFTISRDNAKNTEYLEMNNLKPEDTAVYYCTAQGQWRAAPVAVAAEYEFWGQGTQVTVSS
neutralization titer [19]: 19.3 nM | neutralization titer [20]: 9.9 nM | neutralization titer [21]: 4 nM | neutralization titer [22]: 7.6 nM | Kd [23]: 1.7 nM

B7: SD1087 (VHH)
VHH: EVQLVESGGGLVQPGGSLRLSCVISGLSLDTYAVGWFRQAPGKEREGITCISSGHGMTYYADSVKGRFTVSTDNAKNTVYLQMNGLQPEDTARYYCATESRYYCSDNWPAPQRYIYWGQGTQVTVSS
hemagglutination inhibition titer [9]: > 50 µg/mL | hemagglutination inhibition titer [10]: > 50 µg/mL | hemagglutination inhibition titer (HA of B/Lee/40 [11]): > 50 µg/mL | VNA titer [12]: 503 nM | VNA titer (HA of B/Lee/40 [13]): 6.5 nM | VNA titer [14]: 79.1 nM

B8: SD1046 (VHH)
VHH: EVQLVESGGGLVQAGDSLRISCAASGRTLSIYSMGWFRQAPGKEREFVATIGWNSGRTFYPDSLKGRFTISRDNARNTLYLQMNNLRPEDTAVYYCAAAKGPLRLSSQADYWGQGTQVTVSS
VNA titer [24]: > 1000 nM | VNA titer [25]: 34.3 nM | VNA titer (HA of H7N7 A/PR8 H7N7-NY [26]): 25.9 nM | VNA titer (HA of H3N2 A/HK/1/68-MA [27]): 26.4 nM | VNA titer [28]: > 1000 nM | VNA titer [29]: > 1000 nM | VNA titer (HA of H7N9 A/Anhui/1/13): 46.1 nM | VNA titer (HA of H3N2 A/HK/1/68 [30]): 202 nM | VNA titer [31]: > 1000 nM | VNA titer [32]: 34.3 nM

B9: SD1048 (VHH)
VHH: EVQLVESGGGVVQPGGSLRLSCVASGRTSSMYSIGWFRQAPGKEREFVAVIGWYSGRTFYTDSMKGRFTISRDNARNTVYLQMNSLKPEDTAVYYCAAANGPLRLSNQADYWGQGTQVTVSS
VNA titer [24]: > 1000 nM | VNA titer [25]: 34.3 nM | VNA titer (HA of H7N7 A/PR8 H7N7-NY [26]): 93 nM | VNA titer (HA of H3N2 A/HK/1/68-MA [27]): 110 nM | VNA titer [28]: > 1000 nM | VNA titer [29]: > 1000 nM | VNA titer [31]: > 1000 nM | VNA titer [32]: 34.3 nM

B10: SD1034 (VHH)
VHH: EVQLVESGGGLVQAGGSLRLSCAASGTIFGIRVNTMGWYRQAPGEQRELVATITRSGGTNYADSVKDRFTISGDFAKDTVYLQMMHLKPEDTAVYYCNGRWALTDYWGQGTQVTVSS
VNA titer (HA of H3N2 A/HK/1/68-MA [5]): > 1000 nM

B11: SD1076 (VHH)
VHH: EVQLVESGGGLVQAGGSLTLSCAGSGFAFSIATMGWYRQAPGKQRELVADITSGGSTNYADSVKGRFTISRDNAKNTVYLQMNSLKPEDTAVYYCNADSLATGWRQYSYWGKGTQVTVSS
notes: llama sdAb
binding result (HA of H3N2 A/HK/1/68 [1]): no binding (tested: HA 20 µg/mL) | VNA titer [3]: > 1000 nM | VNA titer (HA of H3N2 A/HK/1/68-MA [5]): > 1000 nM | VNA titer [6]: > 1000 nM | VNA titer [33]: 38.5 nM | VNA titer [34]: > 1000 nM

B12: SD1014 (VHH)
VHH: EVQLVESGGGLVQAGGSLTLSCAASGRTYAMAWFRQAPGKEREFVAHINALGTRTYYSDSVKGRFTISRDNAKNTEYLQMNSLNPEDTAVYYCAAGGQWRAAPVADAAQYDFWGQGTQVTVSS
notes: llama sdAb
pIC50 [35]: 9.2 | VNA titer (HA of H3N2 A/HK/1/68-MA [27]): > 1000 nM | VNA titer [31]: > 1000 nM

B13: SD1047 (VHH)
VHH: EVQLVESGGGLVQAGGSLRISCAASGRTYAMAWFRQAPGKEREFVAHINALGTRTYYSDSVKDRFTISRDNAKNTEYLQMNSLKPEDTAVYYCVAGGQWRAAPVAAAESYDFWGQGTQVTVSS
VNA titer (HA of H3N2 A/HK/1/68-MA [27]): > 1000 nM | VNA titer [36]: > 1000 nM | VNA titer [31]: > 1000 nM

B14: SD1017 (VHH)
VHH: EVQLVESGGGLVQAGGSLRLSCAASGRTYAMAWFRQAPGKEREFVAHINALGTRAYYSDSVEGRFTISRDNAKNTGYLQMNSLEPEDTAVYVCAAGGQWRAAPVADAAQYDFWGQGTQVTVSS
VNA titer (HA of H3N2 A/HK/1/68-MA [27]): > 1000 nM | VNA titer [29]: > 1000 nM | VNA titer [31]: > 1000 nM
